Assay: yeast display, Sf9 membrane polyspecificity reagent, FACS + sequencing; frameworks hold sequencing errors
How it was run: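 Genes from sorted yeast were amplified by colony PCR, read by MiSeq 2 × 250 sequencing and filtered on CDR length. These cells carried a synthetic nanobody library in Saccharomyces cerevisiae BJ5465 and were sorted by FACS into low and high (top ~1%) gates on anti-HA and streptavidin fluorescence. Polyreactivity is labelled according to the gate of origin.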

Sequence | polyreactivity (PSR sort gate)
QVQHVESGRGLVQAGGSLRLSCSASVRIFYNYAMGWYRQAPGKERELVAAISGSGGSTYYADSVKGRFTISRDNAKNSVYLQMNSQKPEDTAVYYCNKAVRRYPRFDYWGQGTQVTVSS | low polyreactivity
QVQHVESRGGLVQAGGSLRLSCAASGFTSDSNAMGWYRQAPGKERELVAAIDSGGGSTYYADSVKGRFTISRDNAKNTVYLQMISLKPEDTAVYYCNAEQTPFVASLRVGEYGYWGQGTQVTVSS | low polyreactivity
QVQHVESRGGLVQAGGSLRLSCAASGRTFQANAMGCYRQAPGKERELVAAITGRGGTTYYADSVKGRFTISRDNAKNTVYLQMNSLKPEDTAVYYCARALSGYGFWGYEYWGQGTQVTVSS | low polyreactivity
QVQHVESRGGLVQAGGSLRLSCAASGRTFVRYAMGWYRQAPGKERELVAAISGDGASTYYADSVKGRFTISRDNAMNTVYLQMNSLKPEDTAVYYCNARSIRRYYYPDYDYWGQGTQVTVSS | high polyreactivity
QVQHVESRGGLVQAGGSLRLSCAASGSIFFAYAMGWDRQGPGKEREFVAAISASGGSTSYADSVKGRFTISRDNAKNTVYLQMNSLKPEDTAVYYCATEHSVTTYDYWGQGTQVTVSS | low polyreactivity
QVQHVESVGGLDQAGVSLRLSSSASGITFSYNAMGCSRQAPGKESEFVAAISSNSDSTYYADSVKGRFTISRDNAKNTVYLQMNSLKPEDTAVYYCAAETPDAPDYSGFYYWGQGTQVTVSS | low polyreactivity
QVQHVESVGGLVQAGGSLRLSCAASGGIFWVYAMGWYRQAPGKERELVAAISNSDTSTSYADSVKGRFTISRDNAKNTVYLQMNSLKPEDTAVYYCNADSPSLSGDYWGQGTQVTVSS | low polyreactivity
QVQHVESVGGLVQAGGSLRLSCAASGRTFGAYDMGWYRQAPGKERELVAAITRSGGSTYYADSVKGRFTISRDNAKNTVYLQMNSLKPEDTAVYYCAARDQVYNYRFGSRGGVYYWGQGTQVTVSS | high polyreactivity
QVQHVESVGGLVQAGGSLRLSCAASGRTLKKNAMGWYRQAPGKERELVAAISTGGRTYYADSVKGRFTISRDNAKNTVYLQMNSLKPEDTAVYYCNFQFLSWSTIWGNDYWGQGTQVTVSS | high polyreactivity
QVQHVESVGGLVQAGGTLRLSCSASGQIFEPYAMGWYRQAPGKERELVAAINSGGSTNYADSVKGRFTISRDNAKNTVYLQMNSLKPEDTAVYYCNKGQNIRQSPGDYWGLGTQVTVSS | low polyreactivity
QVQHVESVVGLVQAGGSLRLSCAASGSTFGPNAMGWSRQAPGKERELVAAITSGGRTYYADSVKGRFTISRDNAKNTVYLQMNSLKPEDTAVYYCAARVSVGVPRYEYWGQGTQVTVSS | high polyreactivity
QVQHVETGGGLVQAGGSLRLSCAASGFIFSQYAMGWYRQAPGKERELVAAISSGSTYADSVKGRVTISRDNAKNTVYLQMNSLKPEDTAVYYCAVDYHQAWPSADYWFEYVYWGQGTQVTVSS | low polyreactivity
QVQHVETGGGLVQAGGSLRLSCAASGRIFSYNAMGWYRQPPGKERELVAAISQRGGRTYYADSVKGRFTISRDNAKNTVYLQMNSLKPEDPAVYDCNKDKGQSLSSYGYWGQGTQVTVSS | high polyreactivity
QVQHVETGGGLVQAGGSLRLSCAATGYTLYRYPMGWYRQAPGKERELVARISYRTGSTYYADSVKGRFTISRDKAKNTVYLQMNSLKPEDTAVYYCAKYPGISGYKYWGQGTQVTVSS | high polyreactivity
QVQHVETGRDLVQAGGSLRLSCAAAGLIFVSYAMGGYRQAPGKERELVASITDSDSSTYYADSVKGRFTISRDNAKNTVYLQMNSLKPEDTAVYYCATGGRTEIWYPTLDYWGQGTQVTVSS | low polyreactivity
QVQIEDSGGGLVQAGGSLRLICAASGFTFINNDMGWYRQAPGKERELVAAISDSDGTTYYADSVKGRFTISRDNAKNTVYLQMNSLKPEDTEVYYCAADVVPTWEDEYWGQGTQVTVSS | low polyreactivity

Sequence | polyreactivity (PSR sort gate)
QVQIEESGGGLVQAGGSLRLSCAASGFTFRWYAMGWSIQAPGKERELVAAIDWSGGSTNYADSVKGRFTISRDNAKNTVYLQMNSLKPEDTAVYYCAAVWRYWYPGFVPYDYWGQGTQVTVSS | high polyreactivity
QVQIEESGGGLVQAGGSLRLSCAASGRIFGSYTMGWSRQAPRKERELVAGISRRGGSTYYADSVKGRFTISRDNAKYTVYLQMNSLTTEDTAVYYCNTLRTNLFFTPLGFDYWGQGTQVTVSS | high polyreactivity
QVQIEESGGGLVQAGGSLRLSCAASGRTFLHKDMGWYRPAPGKERELVAAINVSDGSTYYADSVKGRFTISRDNAKNTVYLQMNSLKPEDTAVYYCAKASYIIFRFEYRSGYDYWGQGTQVTVSS | low polyreactivity
QVQIEESGGGLVQAGGSLRLSCAASGSIFPLYTMGWSRQAPGKERELVAAIDFRGGSTYYADSVKGRFTISRDNAKNSVYLQMNSLKPEDTAVYYCAAAYWAYDTGKMGYWGQGTQVTVSS | low polyreactivity
QVQILESGGGLVQAGGSLGLSCAASGSTFPPYAMGWYRQAPGKERELVATITRGGSTYYADSVKGRFTFSRDNAKNTVYVQMNSLKPADTAVYDCNAKVNRSRRSNLYDYWGQGTQVTVSS | high polyreactivity
QVQIVASWGGLVQAGGSLRLSCAATGRIFEINAMGWYRQAPGKERELVAAITRSGGSTYYADSVKGRFTISRDYAKNTVYVQMNSLKPEDTAVYYCAARGRYWYSRYYSWGQGTQVTVSA | high polyreactivity
QVQIVDSGVGLVQAGGSLRLSCAASGSIFKYNAKGWYREAPGKVRELVAAIRWSGVGTRYADSVKGRFTISRVNAKNTVYLQMNSLKPEDTAVYSCAARYGRHRVSCYATWRYGYWGQGTQVTVSS | low polyreactivity
QVQIVESCGGLFQAAGRLRLICADSRSIFSYNAMGWYRQAPGKERELVAAITSGGRTYYADSVKGRFTISRDNAKNTVYLQMNSLKPEDTGVYYCAAYQTGLHGFYSWGQGTQVTVSS | high polyreactivity
QVQIVESCGGLVQAGGSLRLSCAASGITFDVNTMGWYRQAPGKEREMVAAITRDVTTNYADSVKGPFTISRDNAKNTVYLQMNSLKPEDTAVYYCAADGYGQYSQVTDHPYKYNYWRQGTQVTVSS | low polyreactivity
QVQIVESGAGLVQAGGTLRISCAPSGITFTPYAMGWYRQAPGKEWELVATITSDGGSTYYADSVKGRFTISRDNAKNTVYLQKNSLKPEETAVYYCAAADHAWLYGWGYSLDVWYYYWGQGNQVTVSS | low polyreactivity
QVQIVESGAVIVQAGGSLRLSCAASGSTFGSYTMGWYRQAPGKERELVASISRDGRTKYADSVKGRFTISRDNATNTVYLQMKSLKPEDTAVYYCANSKWRGRGGTYDYWGQVTQVTVSS | high polyreactivity
QVQIVESGGCLVQAGGSLRLSCAASGGTIGGNAMGWYRQAPGKQREMVAAITDIGGSTYYSDSVKGRFTISRDNAKNTVSLQKNCLKPEDTSVYFCATDEASNQDATYLYYYWGQGTQVTVSS | low polyreactivity
QVQIVESGGGLEQAGGSLRLSCAASGRIFNRYAMGWYRQAPGKDWELVARNSWSGARTYYADSVKGRFTISRDNAKNTVYLQMNRLKPEDTAVSYCAAAVTYPAGGRTSLYEYWGQRTQVTVSS | high polyreactivity
QVQIVESGGGLFQAGGSLRISCAASGSTIRANPMGWYRQAPGKERELVAAITKNGGSTYYADSVKGRYTISRDNAKYTVYLPMNTLIPEDNGVYYCAARRSSRRPPYYYWGQGTQVTVSS | high polyreactivity
QVQIVESGGGLFQAGGSLRLSCAASGITFVFYAKRRYRQAPGKERELVAAISSSGGSTYYADSVKVRFTISRDYAKNSVYLQMKSLKPDDTAVYYCNAIVFSYQRAVRYDYWGQGTQVTVSS | high polyreactivity
